Test results taken from patent US20210238260.

Tests used:
[1] = molecular target: Factor X (FX), P00742
[2] = molecular target: Factor X, P00742
[3] = molecular target: antithrombin III (plasma purified human AT-III), used as the AT-III/unfractionated heparin complex; assay: K0.5 ratio to Catalyst Biosciences WT FIXa, AT-III/UFH inhibition assay
[4] = molecular target: T1, Antithrombin III (plasma purified human AT-III, Molecular Innovations); assay: same assay; ratio to recombinant wild-type FIXa (Catalyst Biosciences WT)
[5] = molecular target: T1, Antithrombin III (plasma purified human …); assay: AT-III/UFH inhibition: FIXa variant incubated with AT-III dilutions in excess unfractionated heparin, residual cleavage of Mesyl-D-CHG-Gly-Arg-AMC; K0.5 = AT-III concentration for 50% inhibition (IC50)
[6] = molecular target: plasma purified human AT-III (antithrombin III); assay: AT-III/UFH inhibition K0.5, ratio to Catalyst Biosciences WT FIXa
[7] = molecular target: plasma purified human antithrombin III (AT-III), as complex with unfractionated heparin; assay: ratio of K0.5 to Catalyst Biosciences WT FIXa, AT-III/UFH inhibition

Chain of Factor X, P00742 (P00742 whole entry, looked up): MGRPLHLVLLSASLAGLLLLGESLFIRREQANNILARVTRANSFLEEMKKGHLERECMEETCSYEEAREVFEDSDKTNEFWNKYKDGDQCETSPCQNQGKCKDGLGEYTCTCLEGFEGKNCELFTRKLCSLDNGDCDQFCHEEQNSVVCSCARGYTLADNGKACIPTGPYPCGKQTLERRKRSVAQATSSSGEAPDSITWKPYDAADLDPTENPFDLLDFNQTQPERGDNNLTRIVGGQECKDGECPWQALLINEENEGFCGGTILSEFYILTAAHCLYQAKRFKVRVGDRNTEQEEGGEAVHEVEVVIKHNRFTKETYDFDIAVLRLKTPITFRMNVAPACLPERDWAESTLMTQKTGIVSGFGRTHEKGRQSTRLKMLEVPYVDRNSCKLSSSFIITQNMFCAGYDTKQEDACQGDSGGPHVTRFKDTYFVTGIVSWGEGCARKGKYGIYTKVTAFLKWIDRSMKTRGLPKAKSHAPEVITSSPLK
Chain of Factor X (FX), P00742 (P00742 whole entry, looked up): as above

| Protein | % of WT kcat/KM [1] [%] | kcat [1] [s⁻¹] | kcat/KM [1] [M⁻¹ s⁻¹] | KM [2] [nM] | K0.5-mut/K0.5-wt [3] [fold] | K0.5-mut/K0.5-wt [4] | K0.5 [5] [nM] | KM [1] [nM] | kcat of FX activation by FIXa (Xase complex with FVIIIa, PC/PS vesicles, Ca2+) [1] [s⁻¹] | % of WT kcat/KM [2] [%] | kcat [2] [s⁻¹] | kcat/KM [2] [M⁻¹ s⁻¹] | K0.5-mut/K0.5-wt [6] | K0.5-mut/K0.5-wt [7] |
| --- | --- | --- | --- | --- | --- | --- | --- | --- | --- | --- | --- | --- | --- | --- |
| FIXa-D203N/F205T/K228N (protein) chain 1: YNSGKLEEFVQGNLERECMEEKCSFEEAREVFENTERTTEFWKQYVDGDQCESNPCLNGGSCKDDINSYECWCPFGFEGKNCELDVTCNIKNGRCEQFCKNSADNKVVCSCTEGYRLAENQKSCEPAVPFPCGRVSVSQTSKLTR chain 2: VVGGEDAKPGQFPWQVVLNGKVNATCGGSIVNEKWIVTAAHCVETGVNITVVAGEHNIEETEHTEQKRNVIRIIPHHNYNAAINKYNHDIALLELDEPLVLNSYVTPICIADKEYTNIFLKFGSGYVSGWGRVFHKGRSALVLQYLRVPLVDRATCLRSTKFTIYNNMFCAGFHEGGRDSCQGDSGGPHVTEVEGTSFLTGIISWGEECAMKGKYGIYTKVSRYVNWIKEKTKLT | 31 | 0.6 | 1.4e+07 | 39.9 | 42.5 | 42.5 | 822 | – | – | – | – | – | – | – |
| FIXa-R338E/R403E/E410N (protein) chain 1: YNSGKLEEFVQGNLERECMEEKCSFEEAREVFENTERTTEFWKQYVDGDQCESNPCLNGGSCKDDINSYECWCPFGFEGKNCELDVTCNIKNGRCEQFCKNSADNKVVCSCTEGYRLAENQKSCEPAVPFPCGRVSVSQTSKLTR chain 2: VVGGEDAKPGQFPWQVVLNGKVDAFCGGSIVNEKWIVTAAHCVETGVKITVVAGEHNIEETEHTEQKRNVIRIIPHHNYNAAINKYNHDIALLELDEPLVLNSYVTPICIADKEYTNIFLKFGSGYVSGWGRVFHKGRSALVLQYLRVPLVDRATCLESTKFTIYNNMFCAGFHEGGRDSCQGDSGGPHVTEVEGTSFLTGIISWGEECAMKGKYGIYTKVSEYVNWIKNKTKLT | – | – | – | 45.5 | 122 | 122 | 2350 | – | – | – | – | – | – | – |
| FIXa-K228N/R338E/R403E (protein) chain 1: YNSGKLEEFVQGNLERECMEEKCSFEEAREVFENTERTTEFWKQYVDGDQCESNPCLNGGSCKDDINSYECWCPFGFEGKNCELDVTCNIKNGRCEQFCKNSADNKVVCSCTEGYRLAENQKSCEPAVPFPCGRVSVSQTSKLTR chain 2: VVGGEDAKPGQFPWQVVLNGKVDAFCGGSIVNEKWIVTAAHCVETGVNITVVAGEHNIEETEHTEQKRNVIRIIPHHNYNAAINKYNHDIALLELDEPLVLNSYVTPICIADKEYTNIFLKFGSGYVSGWGRVFHKGRSALVLQYLRVPLVDRATCLESTKFTIYNNMFCAGFHEGGRDSCQGDSGGPHVTEVEGTSFLTGIISWGEECAMKGKYGIYTKVSEYVNWIKEKTKLT | – | – | – | 59.2 | 86.8 | 86.8 | 1680 | – | – | – | – | – | – | – |
| FIXa-D203N/F205T/R318Y (protein) chain 1: YNSGKLEEFVQGNLERECMEEKCSFEEAREVFENTERTTEFWKQYVDGDQCESNPCLNGGSCKDDINSYECWCPFGFEGKNCELDVTCNIKNGRCEQFCKNSADNKVVCSCTEGYRLAENQKSCEPAVPFPCGRVSVSQTSKLTR chain 2: VVGGEDAKPGQFPWQVVLNGKVNATCGGSIVNEKWIVTAAHCVETGVKITVVAGEHNIEETEHTEQKRNVIRIIPHHNYNAAINKYNHDIALLELDEPLVLNSYVTPICIADKEYTNIFLKFGSGYVSGWGRVFHKGYSALVLQYLRVPLVDRATCLRSTKFTIYNNMFCAGFHEGGRDSCQGDSGGPHVTEVEGTSFLTGIISWGEECAMKGKYGIYTKVSRYVNWIKEKTKLT | 45 | 0.9 | 2e+07 | 47.5 | 374 | 374 | 7230 | – | – | – | – | – | – | – |
| FIXa-R318Y/R338E/E410N (protein) chain 1: YNSGKLEEFVQGNLERECMEEKCSFEEAREVFENTERTTEFWKQYVDGDQCESNPCLNGGSCKDDINSYECWCPFGFEGKNCELDVTCNIKNGRCEQFCKNSADNKVVCSCTEGYRLAENQKSCEPAVPFPCGRVSVSQTSKLTR chain 2: VVGGEDAKPGQFPWQVVLNGKVDAFCGGSIVNEKWIVTAAHCVETGVKITVVAGEHNIEETEHTEQKRNVIRIIPHHNYNAAINKYNHDIALLELDEPLVLNSYVTPICIADKEYTNIFLKFGSGYVSGWGRVFHKGYSALVLQYLRVPLVDRATCLESTKFTIYNNMFCAGFHEGGRDSCQGDSGGPHVTEVEGTSFLTGIISWGEECAMKGKYGIYTKVSRYVNWIKNKTKLT | – | – | – | 14.2 | 179 | 179 | 3460 | – | – | – | – | – | – | – |
| FIXa-Y155F/N260S/R318Y/R338E/R403E/E410N (protein) chain 1: YNSGKLEEFVQGNLERECMEEKCSFEEAREVFENTERTTEFWKQYVDGDQCESNPCLNGGSCKDDINSYECWCPFGFEGKNCELDVTCNIKNGRCEQFCKNSADNKVVCSCTEGYRLAENQKSCEPAVPFPCGRVSVSQTSKLTR chain 2: VVGGEDAKPGQFPWQVVLNGKVDAFCGGSIVNEKWIVTAAHCVETGVKITVVAGEHNIEETEHTEQKRNVIRIIPHHNYSAAINKYNHDIALLELDEPLVLNSYVTPICIADKEYTNIFLKFGSGYVSGWGRVFHKGYSALVLQYLRVPLVDRATCLESTKFTIYNNMFCAGFHEGGRDSCQGDSGGPHVTEVEGTSFLTGIISWGEECAMKGKYGIYTKVSEYVNWIKNKTKLT | – | – | – | – | – | – | – | 83.9 | 5.8 | 156 | 5.8 | 7e+07 | 501 | 501 |
| FIXa-D203N/F205T/E410N (protein) chain 1: YNSGKLEEFVQGNLERECMEEKCSFEEAREVFENTERTTEFWKQYVDGDQCESNPCLNGGSCKDDINSYECWCPFGFEGKNCELDVTCNIKNGRCEQFCKNSADNKVVCSCTEGYRLAENQKSCEPAVPFPCGRVSVSQTSKLTR chain 2: VVGGEDAKPGQFPWQVVLNGKVNATCGGSIVNEKWIVTAAHCVETGVKITVVAGEHNIEETEHTEQKRNVIRIIPHHNYNAAINKYNHDIALLELDEPLVLNSYVTPICIADKEYTNIFLKFGSGYVSGWGRVFHKGRSALVLQYLRVPLVDRATCLRSTKFTIYNNMFCAGFHEGGRDSCQGDSGGPHVTEVEGTSFLTGIISWGEECAMKGKYGIYTKVSRYVNWIKNKTKLT | 94 | 1.7 | 4.2e+07 | 45.5 | 19.5 | 19.5 | 377 | – | – | – | – | – | – | – |
| FIXa-D203N/F205T/R338E/R403E (protein) chain 1: YNSGKLEEFVQGNLERECMEEKCSFEEAREVFENTERTTEFWKQYVDGDQCESNPCLNGGSCKDDINSYECWCPFGFEGKNCELDVTCNIKNGRCEQFCKNSADNKVVCSCTEGYRLAENQKSCEPAVPFPCGRVSVSQTSKLTR chain 2: VVGGEDAKPGQFPWQVVLNGKVNATCGGSIVNEKWIVTAAHCVETGVKITVVAGEHNIEETEHTEQKRNVIRIIPHHNYNAAINKYNHDIALLELDEPLVLNSYVTPICIADKEYTNIFLKFGSGYVSGWGRVFHKGRSALVLQYLRVPLVDRATCLESTKFTIYNNMFCAGFHEGGRDSCQGDSGGPHVTEVEGTSFLTGIISWGEECAMKGKYGIYTKVSEYVNWIKEKTKLT | 42 | 0.9 | 1.9e+07 | 51.1 | 78.6 | 78.6 | 1520 | – | – | – | – | – | – | – |
| FIXa-D203N/F205T/R338E (protein) chain 1: YNSGKLEEFVQGNLERECMEEKCSFEEAREVFENTERTTEFWKQYVDGDQCESNPCLNGGSCKDDINSYECWCPFGFEGKNCELDVTCNIKNGRCEQFCKNSADNKVVCSCTEGYRLAENQKSCEPAVPFPCGRVSVSQTSKLTR chain 2: VVGGEDAKPGQFPWQVVLNGKVNATCGGSIVNEKWIVTAAHCVETGVKITVVAGEHNIEETEHTEQKRNVIRIIPHHNYNAAINKYNHDIALLELDEPLVLNSYVTPICIADKEYTNIFLKFGSGYVSGWGRVFHKGRSALVLQYLRVPLVDRATCLESTKFTIYNNMFCAGFHEGGRDSCQGDSGGPHVTEVEGTSFLTGIISWGEECAMKGKYGIYTKVSRYVNWIKEKTKLT | 234 | 2.5 | 1e+08 | 24.1 | 60.5 | 60.5 | 1170 | – | – | – | – | – | – | – |
| FIXa-D203N/F205T/R338A (protein) chain 1: YNSGKLEEFVQGNLERECMEEKCSFEEAREVFENTERTTEFWKQYVDGDQCESNPCLNGGSCKDDINSYECWCPFGFEGKNCELDVTCNIKNGRCEQFCKNSADNKVVCSCTEGYRLAENQKSCEPAVPFPCGRVSVSQTSKLTR chain 2: VVGGEDAKPGQFPWQVVLNGKVNATCGGSIVNEKWIVTAAHCVETGVKITVVAGEHNIEETEHTEQKRNVIRIIPHHNYNAAINKYNHDIALLELDEPLVLNSYVTPICIADKEYTNIFLKFGSGYVSGWGRVFHKGRSALVLQYLRVPLVDRATCLASTKFTIYNNMFCAGFHEGGRDSCQGDSGGPHVTEVEGTSFLTGIISWGEECAMKGKYGIYTKVSRYVNWIKEKTKLT | 139 | 2.3 | 6.2e+07 | 38.5 | 21.9 | 21.9 | 423 | – | – | – | – | – | – | – |
| FIXa-R318Y/R338E/T412A (protein) chain 1: YNSGKLEEFVQGNLERECMEEKCSFEEAREVFENTERTTEFWKQYVDGDQCESNPCLNGGSCKDDINSYECWCPFGFEGKNCELDVTCNIKNGRCEQFCKNSADNKVVCSCTEGYRLAENQKSCEPAVPFPCGRVSVSQTSKLTR chain 2: VVGGEDAKPGQFPWQVVLNGKVDAFCGGSIVNEKWIVTAAHCVETGVKITVVAGEHNIEETEHTEQKRNVIRIIPHHNYNAAINKYNHDIALLELDEPLVLNSYVTPICIADKEYTNIFLKFGSGYVSGWGRVFHKGYSALVLQYLRVPLVDRATCLESTKFTIYNNMFCAGFHEGGRDSCQGDSGGPHVTEVEGTSFLTGIISWGEECAMKGKYGIYTKVSRYVNWIKEKAKLT | – | – | – | – | – | – | – | 23.5 | 7 | 661 | 7 | 3e+08 | 396 | 396 |
